Assay results published in the supplement of paper PMC7877785.
± gives the uncertainty stated by the source.

Assay: self-splicing fitness, log relative to wild type (ln ratio); higher = more splicing; Tetrahymena group I intron in knt gene, E. coli kanamycin selection, DiMSum; sequences stand for … in CUCUCU…GGAGGGAAAAGUUAUCAGGCAUGCACCUGGUAGCUAGUCUUUAAACCAAUAGAUUGCAUCGGUUUAAAAGGCAAGACCGUCAAAUUGCGGGAAAGGGGUCAACAGCCGUUCAGUACCAAGUCUCAGGGGAAACUUUGAGAUGGCCUUGCAAAGGGUAUGGUAAUAAGCUGACGGACAUGGUCCUAACCACGCAGCCAAGUCCUAAGUCAACAGAUCUUCUGUUGAUAUGGAUGCAGUUCACAGACUAAAUGUCGGUCGGGGAAGAUGUAUUCUUCUCAUAAGAUAUAGUCGGACCUCUCCUUAAUGGGAGCUAGCGGAUGAAGUGAUGCAACACUGGAGCCGCUGGGAACUAAUUUGUAUGCGAAAGUAUAUUGAUUAGUUUUGGAGUACUCGUGGUCG
In short: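 Pooled colonies went to amplicon sequencing on an Illumina HiSeq 2500 after six replicate transformations. The plates were LB agar with 100 μg/mL carbenicillin, 50 μM IPTG and 0.2% rhamnose, with or without 25 μg/mL kanamycin, incubated overnight at 37°C or 30°C. The E. coli BL21(DE3) library had all eight P1ex-region intron nucleotides randomised, the intron placed in the knt kanamycin-resistance gene on pET-22b(+). DiMSum fitness is the error-weighted combination of replicate fold changes, kanamycin against none, normalised to wild type.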

UUUGAGCAAUAUUACGAGUU
self-splicing fitness (ln) (37 °C): -1.87 ± 0.42

UUUGAGCAAUAUUACGAUCA
self-splicing fitness (ln) (30 °C): -2.12 ± 0.24 | self-splicing fitness (ln) (37 °C): -1.28 ± 0.25

UUUGAGCAAUAUUACGCAAG
self-splicing fitness (ln) (30 °C): -3.09 ± 0.34 | self-splicing fitness (ln) (37 °C): -1.51 ± 0.23

UUUGAGCAAUAUUACGCGUC
self-splicing fitness (ln) (30 °C): -2.03 ± 0.22 | self-splicing fitness (ln) (37 °C): -2.49 ± 0.26

UUUGAGCAAUAUUACGCGUG
self-splicing fitness (ln) (30 °C): -2.33 ± 0.14 | self-splicing fitness (ln) (37 °C): -0.742 ± 0.12

UUUGAGCAAUAUUACGGAAG
self-splicing fitness (ln) (37 °C): -1.41 ± 0.43

UUUGAGCAAUAUUACGGAUA
self-splicing fitness (ln) (30 °C): -3.12 ± 0.43 | self-splicing fitness (ln) (37 °C): -2.36 ± 0.45

UUUGAGCAAUAUUACGGCAC
self-splicing fitness (ln) (30 °C): -2.87 ± 0.41 | self-splicing fitness (ln) (37 °C): -2.56 ± 0.31

UUUGAGCAAUAUUACGGGCG
self-splicing fitness (ln) (30 °C): -3.15 ± 0.42 | self-splicing fitness (ln) (37 °C): -2.16 ± 0.43

UUUGAGCAAUAUUACGGGCU
self-splicing fitness (ln) (30 °C): -2.89 ± 0.34 | self-splicing fitness (ln) (37 °C): -2.86 ± 0.41

UUUGAGCAAUAUUACGGGUC
self-splicing fitness (ln) (37 °C): -3.77 ± 0.46

UUUGAGCAAUAUUACGUACC
self-splicing fitness (ln) (30 °C): -2.34 ± 0.44 | self-splicing fitness (ln) (37 °C): -2.3 ± 0.42

UUUGAGCAAUAUUACGUAUG
self-splicing fitness (ln) (30 °C): -1.73 ± 0.16 | self-splicing fitness (ln) (37 °C): -2.59 ± 0.24

UUUGAGCAAUAUUACGUCUG
self-splicing fitness (ln) (30 °C): -2.41 ± 0.24 | self-splicing fitness (ln) (37 °C): -0.733 ± 0.21

UUUGAGCAAUAUUACGUGGG
self-splicing fitness (ln) (30 °C): -2.17 ± 0.47 | self-splicing fitness (ln) (37 °C): -1.39 ± 0.3

UUUGAGCAAUAUUACGUGGU
self-splicing fitness (ln) (30 °C): -4.12 ± 0.33 | self-splicing fitness (ln) (37 °C): -2.74 ± 0.38

UUUGAGCAAUAUUACGUUCC
self-splicing fitness (ln) (30 °C): -3.99 ± 0.39

UUUGAGCAAUAUUACGUUCG
self-splicing fitness (ln) (30 °C): -4.2 ± 0.42 | self-splicing fitness (ln) (37 °C): -1.18 ± 0.19

UUUGAGCAAUAUUACGUUGA
self-splicing fitness (ln) (37 °C): -1.92 ± 0.33

UUUGAGCAAUAUUACGUUGU
self-splicing fitness (ln) (30 °C): -2.68 ± 0.21 | self-splicing fitness (ln) (37 °C): -2.46 ± 0.28

UUUUAGCAAUAUUACGACUC
self-splicing fitness (ln) (30 °C): -2.56 ± 0.46

UUUUAGCAAUAUUACGAGGU
self-splicing fitness (ln) (30 °C): -2.89 ± 0.43

UUUUAGCAAUAUUACGCAGG
self-splicing fitness (ln) (30 °C): -1.33 ± 0.12 | self-splicing fitness (ln) (37 °C): -1.03 ± 0.16

UUUUAGCAAUAUUACGCGAA
self-splicing fitness (ln) (30 °C): -1.57 ± 0.28 | self-splicing fitness (ln) (37 °C): -1.08 ± 0.39

UUUUAGCAAUAUUACGCGCC
self-splicing fitness (ln) (30 °C): -1.71 ± 0.29 | self-splicing fitness (ln) (37 °C): -0.726 ± 0.28

UUUUAGCAAUAUUACGCGUA
self-splicing fitness (ln) (30 °C): -1.57 ± 0.13 | self-splicing fitness (ln) (37 °C): -1.22 ± 0.12

UUUUAGCAAUAUUACGGCCC
self-splicing fitness (ln) (37 °C): -1.14 ± 0.42

UUUUAGCAAUAUUACGUAAC
self-splicing fitness (ln) (30 °C): -3.07 ± 0.31 | self-splicing fitness (ln) (37 °C): -1.57 ± 0.38

UUUUAGCAAUAUUACGUCUU
self-splicing fitness (ln) (30 °C): -2.43 ± 0.18 | self-splicing fitness (ln) (37 °C): -1.33 ± 0.19

UUUUAGCAAUAUUACGUGAC
self-splicing fitness (ln) (30 °C): -3.41 ± 0.28 | self-splicing fitness (ln) (37 °C): -0.031 ± 0.22

UUUUAGCAAUAUUACGUGGG
self-splicing fitness (ln) (30 °C): -1.79 ± 0.2 | self-splicing fitness (ln) (37 °C): -2.27 ± 0.27

UUUUAGCAAUAUUACGUUUA
self-splicing fitness (ln) (30 °C): -1.94 ± 0.22 | self-splicing fitness (ln) (37 °C): -1.05 ± 0.16
